Experimental data taken from US20050009749A1.

Target: β amyloid (Aβ) 1-40 peptide
Assay: cell-based or functional assay

Chain of β amyloid (Aβ) 1-40 peptide (peptide, as listed by the source): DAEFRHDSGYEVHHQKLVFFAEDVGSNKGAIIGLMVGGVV

AABA protein (β amyloid aggregation blocking activity protein) from Streptomyces sp. KK565
inhibition of Aβ aggregation, Congo red assay: 93.2 % inhibition
inhibition of Aβ aggregation, thioflavin-T fluorescence assay: 97 % inhibition

AABA protein (β amyloid aggregation blocking activity protein) from Streptomyces sp. KK565 (enzyme)
protection of SHSY-5Y neuronal cells from Aβ-induced death, MTT assay (% more surviving cells than control): 20
